Each structure is given as a SMILES string.

Data set [1] is classed as physicochemical. Conditions: pH 7.4. The method, then:
The lipophilicity of each one of the [^68Ga]Ga-DOTA-TATEs were assessed as described in the literature. In brief, two phases of 1-octanol and phosphate buffer (PBS) at a pH of 7.4 were presaturated with each other. The presaturated 1-octanol (3.0 mL) was added to 3.0 mL of presaturated PBS that had about 0.3 MBq of labelled [^68Ga]Ga-DOTA-TATEs. The mixture was vortexed for 1.0 minute at room temperature then centrifuged for 1.0 minute at 3000 RPM. 1.0 mL of each phase was taken and measured its activity in automated gamma counter. Log D7.4 was determined for at least three experiments using Equation 1 below, where CPM (count per minute) is the reading from the gamma counter.

Data set [2] is classed as in vitro ADME, mouse. The method, then:
(§1) Serum stability was determined using a previously published method. Aliquots of each one of the [^68Ga]Ga-DOTA-TATEs (5.0 MBq) were added to 0.4 mL human or mice serum and incubated at 37° C. Aliquots (20 μL) were taken at various time intervals (10, 30, 60, 90, 120 minutes) and quenched in ice-cold acetonitrile. The samples were centrifuged, and the supernatants were diluted further with deionized water and were analyzed by radio-HPLC (a flow rate 0.65 mL/min with a gradient of CH3CN:H2O with 0.1% TFA in both). 5.0 MBq of [^68Ga]Ga-DOTA-TATEs were prepared in 0.4 mL of PBS and used as a reference in the radio-HPLC measurement for the stability in serum study.

Data set [3] is classed as in vitro ADME, human. The method, then:
as §1

Data set [4] is classed as in vitro ADME. Conditions: plasma. The method, then: Serum binding assay for each one of [^68Ga]Ga-DOTA-TATEs were carried out as described in the literature. Compendiously, labelled [^68Ga]Ga-DOTA-TATEs (4-3 MBq) were added to freshly prepared 0.1 mL of anticoagulated human or mice plasma and the mixtures were incubated for 120 minutes at 37° C. This was followed by addition of 1.0 mL ice-cold acetonitrile and centrifuged for 2 minutes at 3000 RPM. The addition of acetonitrile had been repeated two times and all supernatants (denoted as A) were combined and the total radioactivity was measured using automated gamma counter. The radioactivity of the precipitate (B) was measured as well. The plasma-protein binding rate was calculated using Equation 2 below (n=3).

Data set [5] in a line: in vivo. To be noted: male, NOD-SCID gamma (NSG), mouse, in vivo, iv, total radioactivity. The method, then:
(§2) The experimental protocol was approved by the University of Saskatchewan Committee on Animal Care and procedures were performed in accordance with the guidelines of the Canadian Council on Animal Care and the Canadian Nuclear Safety Commission. Aliquots of about 200 μL of each one of [^68Ga]Ga-DOTA-TATEs (7-5 MBq with <10% EtOH) were loaded to 0.5 mL syringes and >96% Radiochemical yields (RCY) were confirmed by using radio-HPLC followed by injection to healthy CD1 female mice and xenograft bearing male NOD-SCID gamma mice (USASK colony F1 005557, strain NOD.Cg-PrkdcscidIl2rg) (n=4), via tail vein catheter while in the PET scanner with image acquisition started, under anesthesia (2.5% isoflurane in O2, at a flow rate of 2 mL/min). 90-minute dynamic images of all four mice were collected simultaneously on the Sofie GNEXT PET/CT small animal imaging system using the included 4-mouse heated bed. The mice were euthanized (by cervical dislocation while they were under the effect of anesthesia) at 2 hrs post injection and blood and specific organs were harvested, weighed, and residual activity in the organs were measured by using an automated gamma counter. All images were reconstructed using VivoQuant® 2020 software (patch 1 64 bit, build vq-2020patch1-0-ga8255affc).
(§3) As done for healthy mouse studies, animals were awakened for 30 minutes following PET/CT and then euthanized at 2 hours post injection. Tissue/organ samples were collected, weighed, and the amount of activity present in the samples was measured using an automated gamma counter.

Data set [6] deals with AR42J (SSTR2 over-expressing) subcutaneous tumors. Briefly: Ex vivo biodistribution in xenograft mice two hours post injection. To be noted: for tumor uptake compared with the other compounds: AR42J tumor bearing mice; for tumor uptake compared with the other compounds / tumor uptake, biodistribution / tumor-to-kidney ratio: 2 hours post injection; for tumor uptake, biodistribution / tumor-to-kidney ratio: male AR42J tumor bearing mice; for pharmacokinetic of healthy-tissue clearance (words, figure legend) / tumor-tissue ratios (words, figure legend): mouse, in vivo. The method, then: as §2, §3

Details of data set [7]: species or system healthy CD1 mice. Conditions: mouse, in vivo. The method, then: Experiments were performed in healthy female mice (CD1) to determine the behavior and distribution of these compounds (pharmacokinetics). Mice were catheterized via tail vein and injected while in the scanner, and dynamic PET-CT imaging was performed from time 0 until 1.5 hours post injection (n=4 each group, 4 mice in the scanner simultaneously).

Details of data set [8]: species or system healthy CD1 mice. To be noted: mouse, in vivo. The method, then:
After imaging was complete, the mice were kept awake for an additional 30 minutes before being euthanized, bringing the total period of the injection to 2 hours. Biodistribution was performed by removing and weighing individual tissues and organs, and then measuring the activity of [^68Ga]Ga^3+ inside each sample using an automated gamma counter.
This is another data set of the same source.

Data set [9] deals with AR42J (SSTR2 over-expressing) subcutaneous tumors. Briefly: Dynamic PET/CT imaging (0-90 minutes) in tumor-bearing mice. To be noted: male NSG mice bearing AR42J tumors. The method, then:
as §2

As for `C[C@@H](O)[C@H](NC(=O)[C@@H]1CSSC[C@H](NC(=O)[C@@H](Cc2ccccc2)NC(=O)CCOCCOCCOCCOCCNC(=O)[C@H](CCCC[N+](C)(C)CCCS(=O)(=O)[O-])NC(=O)CN2CCN(CC(=O)O)CCN(CC(=O)O)CCN(CC(=O)O)CC2)C(=O)N[C@@H](Cc2ccc(O)cc2)C(=O)N[C@H](Cc2c[nH]c3ccccc23)C(=O)N[C@@H](CCCCN)C(=O)N[C@@H]([C@@H](C)O)C(=O)N1)C(=O)O` [DOTA-(ZW1)-PEG4-TATE], the logD in [1] is -3.39 ± 0.19. In addition, in data set [2], the “MSS % (2 hrs.) = Mouse Serum Stability” value worked out at 100%. For the same compound, in data set [3], the “HSS % (2 hrs.) = Human Serum Stability” value worked out at 100%. The compound also had a fraction unbound at 120 min in data set [4] of 0.534. Moreover, in data set [5], the tissue uptake at 2 h was 32.9 ± 19.8 %ID/g. Further, in data set [6] (listed as Lys(ZW) derivative), the “tumor uptake compared with the other compounds” value is given as “greater tumor uptake”. In [6] (listed as [^68Ga]Ga-DOTA-Lys(ZW)-PEG4-TATE), the “tumor uptake compared with the other compounds” value was “highest”. Besides, in data set [6], the “tumor uptake, biodistribution” value worked out at 20.6±2.5 % ID/g; the tumor-to-kidney ratio came out at 0.63; the “pharmacokinetic of healthy-tissue clearance (words, figure legend)” value is reported as “faster”; the “tumor-tissue ratios (words, figure legend)” value was “improved”.

In turn, `C[C@@H](O)[C@H](NC(=O)[C@@H]1CSSC[C@H](NC(=O)[C@@H](Cc2ccccc2)NC(=O)CCOCCOCCOCCOCCNC(=O)[C@H](CCCC[N+](C)(C)CCCS(=O)(=O)[O-])NC(=O)[C@H](CCCC[N+](C)(C)CCCS(=O)(=O)[O-])NC(=O)CN2CCN(CC(=O)O)CCN(CC(=O)O)CCN(CC(=O)O)CC2)C(=O)N[C@@H](Cc2ccc(O)cc2)C(=O)N[C@H](Cc2c[nH]c3ccccc23)C(=O)N[C@@H](CCCCN)C(=O)N[C@@H]([C@@H](C)O)C(=O)N1)C(=O)O` [DOTA-(ZW2)-PEG4-TATE] gave a logD in data set [1] of -3.36 ± 0.18. Also, the “MSS % (2 hrs.) = Mouse Serum Stability” value in data set [2] was 100%. Besides, in [3], the “HSS % (2 hrs.) = Human Serum Stability” value was determined as 100%. Further, in data set [4], the unbound share (fraction unbound) at 120 min is 0.515. Besides, in data set [6], the “tumor uptake compared with the other compounds” value is listed as “reduced tumor uptake”; the “pharmacokinetic of healthy-tissue clearance (words, figure legend)” value is “faster”; the “tumor-tissue ratios (words, figure legend)” value is “improved”.

On to `C[C@@H](O)[C@H](NC(=O)[C@@H]1CSSC[C@H](NC(=O)[C@@H](Cc2ccccc2)NC(=O)CCOCCOCCOCCOCCNC(=O)[C@@H](Cc2ccc[n+](CCCS(=O)(=O)[O-])c2)NC(=O)CN2CCN(CC(=O)O)CCN(CC(=O)O)CCN(CC(=O)O)CC2)C(=O)N[C@@H](Cc2ccc(O)cc2)C(=O)N[C@H](Cc2c[nH]c3ccccc23)C(=O)N[C@@H](CCCCN)C(=O)N[C@@H]([C@@H](C)O)C(=O)N1)C(=O)O` [DOTA-Pyr(ZW)-PEG4-TATE], for which the logD in data set [1] is -3.57. Besides, in data set [2], the “MSS % (2 hrs.) = Mouse Serum Stability” value stood at 99.6 ± 0.1%. In addition, the “HSS % (2 hrs.) = Human Serum Stability” value in data set [3] is 100%. For the same compound, the fraction unbound at 120 min in data set [4] was 0.575.

On to `C[C@@H](O)[C@H](NC(=O)[C@@H]1CSSC[C@H](NC(=O)[C@@H](Cc2ccccc2)NC(=O)CN2CCN(CC(=O)O)CCN(CC(=O)O)CCN(CC(=O)O)CC2)C(=O)N[C@@H](Cc2ccc(O)cc2)C(=O)N[C@H](Cc2c[nH]c3ccccc23)C(=O)N[C@@H](CCCCN)C(=O)N[C@@H]([C@@H](C)O)C(=O)N1)C(=O)O` [DOTA-TATE, DOTA-Tyr^3-octreotate, reference compound], for which the logD in data set [1] is -2.81. Also, the “MSS % (2 hrs.) = Mouse Serum Stability” value in data set [2] was found to be 100%. Moreover, the “HSS % (2 hrs.) = Human Serum Stability” value in data set [3] came out at 100%. For the same compound, the free fraction (fraction unbound) in [4] is 0.567. In addition, in data set [7], the “start of excretion / renal elimination into the bladder” value is on record as about 70 minutes post injection. In data set [8], the “renal uptake, biodistribution” value was about 74±51 D/g %. Also, the “kidney accumulation, retention and clearance seen in dynamic PET/CT” value in data set [9] was “rapid accumulation and protracted retention”. Also, in data set [5], the tissue uptake at 2 h was 38.8 ± 42.7 %ID/g. In addition, in data set [6], the “tumor uptake, biodistribution” value is reported as 13.8±4.6 % ID/g and the tumor-to-kidney ratio is recorded as 0.35.

These data come from patent US20260069726A1, “ZWITTERIONIC COMPOUNDS AND USES THEREOF” (priority 2022, published 2026).
